Results published in paper PMC13292882 (2025).
No end group written: not given here.

Columns and labels:
[1] = target: Proliferating Cell Nuclear Antigen (PCNA) (UniProt P12004 1-261); test: FP
[2] = target: RPA32 winged-helix domain (RPA32-WH) (amino acids 202-270) (UniProt P15927 202-270); test: FP
Chain of RPA32 winged-helix domain (RPA32-WH) (amino acids 202-270) (P15927 202-270): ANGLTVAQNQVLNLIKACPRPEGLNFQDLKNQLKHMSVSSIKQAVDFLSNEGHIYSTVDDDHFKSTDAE

Chain of Proliferating Cell Nuclear Antigen (PCNA) (P12004 whole entry, the tested form may be a part): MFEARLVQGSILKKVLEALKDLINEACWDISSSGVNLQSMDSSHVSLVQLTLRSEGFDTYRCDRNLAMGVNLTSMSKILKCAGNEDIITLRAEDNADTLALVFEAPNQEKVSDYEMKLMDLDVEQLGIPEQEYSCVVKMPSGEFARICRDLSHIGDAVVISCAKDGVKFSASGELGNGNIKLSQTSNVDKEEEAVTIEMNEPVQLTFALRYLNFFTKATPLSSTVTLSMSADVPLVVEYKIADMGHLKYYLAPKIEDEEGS

## SAVLQKKITDYFHPKK (also: fluorescein-labeled, position not given here) [Pogo-Ligase peptide]
[1]
  Kd: 0.051 µM

## LTEEQRKKIEENRQKALARRAEKLLA (also: fluorescein-labeled, position not given here) [SMARCAL peptide]
[2]
  Kd: 13.5 µM
